From IntAct's records for PubMed 26365382

B1: Zinc finger protein RFP (Homo sapiens), P14373 (parent)
chain: MASGSVAECLQQETTCPVCLQYFAEPMMLDCGHNICCACLARCWGTAETNVSCPQCRETFPQRHMRPNRHLANVTQLVKQLRTERPSGPGGEMGVCEKHREPLKLYCEEDQMPICVVCDRSREHRGHSVLPLEEAVEGFKEQIQNQLDHLKRVKDLKKRRRAQGEQARAELLSLTQMEREKIVWEFEQLYHSLKEHEYRLLARLEELDLAIYNSINGAITQFSCNISHLSSLIAQLEEKQQQPTRELLQDIGDTLSRAERIRIPEPWITPPDLQEKIHIFAQKCLFLTESLKQFTEKMQSDMEKIQELREAQLYSVDVTLDPDTAYPSLILSDNLRQVRYSYLQQDLPDNPERFNLFPCVLGSPCFIAGRHYWEVEVGDKAKWTIGVCEDSVCRKGGVTSAPQNGFWAVSLWYGKEYWALTSPMTALPLRTPLQRVGIFLDYDAGEVSFYNVTERCHTFTFSHATFCGPVRPYFSLSYSGGKSAAPLIICPMSGIDGFSGHVGNHGHSMETSP

Variants of: B1
Details: with magl2_human MAGEL2, Q9UJ55
magl2_human MAGEL2, Q9UJ55, sequence (Q9UJ55 whole entry): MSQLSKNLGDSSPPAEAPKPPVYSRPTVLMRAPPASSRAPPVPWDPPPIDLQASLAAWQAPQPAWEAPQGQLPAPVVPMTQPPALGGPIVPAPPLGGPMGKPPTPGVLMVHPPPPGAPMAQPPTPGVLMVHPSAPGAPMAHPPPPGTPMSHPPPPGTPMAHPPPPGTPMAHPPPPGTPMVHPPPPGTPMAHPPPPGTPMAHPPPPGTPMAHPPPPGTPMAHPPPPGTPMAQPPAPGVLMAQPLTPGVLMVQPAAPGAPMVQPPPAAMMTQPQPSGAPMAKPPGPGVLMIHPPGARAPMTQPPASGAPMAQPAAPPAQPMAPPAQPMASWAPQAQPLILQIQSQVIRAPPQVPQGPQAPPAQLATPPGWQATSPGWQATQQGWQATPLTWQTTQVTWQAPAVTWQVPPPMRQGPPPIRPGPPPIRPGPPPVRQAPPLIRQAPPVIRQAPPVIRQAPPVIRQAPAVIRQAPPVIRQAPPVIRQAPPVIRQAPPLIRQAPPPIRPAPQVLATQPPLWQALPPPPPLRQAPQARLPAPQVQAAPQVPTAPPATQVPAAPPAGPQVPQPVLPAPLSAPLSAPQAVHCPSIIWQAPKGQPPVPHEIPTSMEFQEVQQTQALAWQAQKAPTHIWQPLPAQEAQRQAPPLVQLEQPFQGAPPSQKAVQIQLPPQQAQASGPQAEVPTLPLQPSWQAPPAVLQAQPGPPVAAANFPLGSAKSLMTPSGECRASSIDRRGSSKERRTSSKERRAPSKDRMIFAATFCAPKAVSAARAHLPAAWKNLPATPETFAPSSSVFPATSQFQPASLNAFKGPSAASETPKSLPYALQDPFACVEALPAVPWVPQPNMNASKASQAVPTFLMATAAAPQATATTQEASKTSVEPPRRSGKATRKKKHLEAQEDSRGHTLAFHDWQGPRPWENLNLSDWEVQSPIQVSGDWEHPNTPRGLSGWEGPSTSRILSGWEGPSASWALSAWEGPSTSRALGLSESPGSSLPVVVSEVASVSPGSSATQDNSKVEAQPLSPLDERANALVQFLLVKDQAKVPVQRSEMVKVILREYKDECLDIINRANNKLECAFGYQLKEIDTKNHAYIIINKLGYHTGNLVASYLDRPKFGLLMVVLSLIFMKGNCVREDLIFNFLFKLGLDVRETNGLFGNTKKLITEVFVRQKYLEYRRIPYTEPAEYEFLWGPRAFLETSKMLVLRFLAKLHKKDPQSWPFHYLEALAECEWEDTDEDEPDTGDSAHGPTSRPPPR

Row | Variant | effect of a mutation on the interaction
1 | K304R;K380R;K382R | with no effect
